For test [1], the target named is GST标签蛋白 (Schistosoma japonicum (Blood fluke)) [GST: P08515]. The test is described as follows: indirect ELISA, GST tag protein coated in dilution series, antibody at 1 μg/mL.
The target is the same in test [2]. Kind of test: indirect ELISA, GST tag protein coated at 10000 to 0.64 ng/mL, antibody at 1 μg/mL.

B1: 抗GST单克隆抗体 (杂交瘤细胞株62H9分泌, CCTCC NO:C2021187) (antibody, V domains shown)
VH: EVQLQESGPELVKPGASVRMSCKASGYTFTSYFMHWVKQKSGQGLEWIGYINPYHDGTNYNEKFKGKATLTSDKSSSTAYMELSSLTSEDSAVYSCARSQRLHWYFDVWGAGTTVTVSS
VL: DIVLTQSPTSLAVSLGQRATISCRASQGVSASSYSYIHWYQQKPGQPPKLLIKYASNLESGVPARFSGSGSGTDFTLNVHPVEEEDTATYYCQHSWEIPLTFGGGTKLEIK
As to B1, in test [1], the OD (450nm) at antigen 20ng/ml came to 1 OD. The 亲和力 in test [2] is 20 ng/mL.
